Measurements taken from patent EP4036575A1 (Yeda Research and Development Co. Ltd, dated 2022).

Biological target: T1, mouse recombinant His-calmodulin (mouse, UniProt P0DP26 1-149)
T1 construct: also called His-CaM; His-tagged calmodulin
Assay: SPR (Biacore), His-CaM immobilised on CM5, analyte preincubated with 0.3 mM CaCl2

B1: M13 peptide, the binding fragment (26 aa peptide) of the skeletal muscle myosin light chain kinase (sk-MLCK) (peptide)
peptide: KRRWKKNFIAVSAANRFKKISSSGAL
Q: With B1 as the binder, how does the Kd read?
A: Its Kd is 8.8 nM.
